Results: the supplement of paper PMC9170038

Tested on: MS2 coat protein
Test: apparent KD of MS2 coat protein; designed switch direction (-1 OFF switch, 1 ON switch): 1; higher = weaker reporter binding
Summary of the method: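 Stalled E. coli RNA polymerase transcribed designed RNA switches on Illumina chips, which were then titrated with SNAP-549-labelled MS2 coat protein, doubling from 0.7 or 1.5 nM to 3 µM. Steps lasted from 0.8–1.5 h at the lowest concentration to 10–20 min at the highest. The apparent KD is each design's median over clusters of curve-fitted normalised fluorescence.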

[1] = Eterna round: R95, input ligand: FMN 200 uM
[2] = Eterna round: R95, input ligand: microRNA oligo, concentration not stated
[3] = Eterna round: R95, input ligand: none
[4] = input ligand: microRNA oligo, concentration not stated

Row | Sequence | apparent KD of MS2 coat protein [1] | apparent KD of MS2 coat protein [2] | apparent KD of MS2 coat protein [3] | apparent KD of MS2 coat protein (input ligand: FMN 200 uM) | apparent KD of MS2 coat protein [4] | apparent KD of MS2 coat protein (input ligand: none)
1 | UAAACUUCUUUUAGUGUAAUGCAUGUGAUACAUGAGGAUCACCCAUGUUUUGGUUCGUUUUAUUUUGUUCGUCUUAA [JR_SHM208A_Sub078] (puzzle: Sensor for hsa-mir-208a) | 59.3 nM | 43.9 nM | 81.8 nM |  |  | 
2 | GUAAUACAUGAGGAUCACCCAUGUCAAUGUAGUCGAGGAUAUGGGUAGCUAUGAGGCGUUCUAGAAGGCGACGAGC [Same State 1 - Mod of Vinnie Teenbexe v.3] (puzzle: Same State 1) | 273 nM | 151 nM | 52.2 nM |  |  | 
3 | UUAAUAAUGUAAGGAUAUACAUGAGGAUUUCUCGUAGAAGGUACAGGACAUGAGGAUCACCCAUGUAUCGCUCGAAAGAGCGUA [Mat - Same State NG 1 - JL mod - D25] (Eterna round: R96, puzzle: Same State NG 1) |  |  |  | 521 nM | 217 nM | 1130 nM
4 | UUAUAACAUGAGGAUCACCCAUGUCAUCUAAGUCGAGGAUAUGGGAAUUAAUUAAUUAAACCAGAAGGCGAAAAUU [Mat - Same State 1 - D91] (puzzle: Same State 1) | 160 nM | 149 nM | 783 nM |  |  | 
5 | UGUUGUAUUACAGGAUAUCUAUGGUUUUUAUUUAGAGAAGGGUAUUCACAUGAGGAUCACCCAUGUAUAUACGAGGAAGUUGUG [JMF's solution 58] (Eterna round: R96, puzzle: Same State NG 1) |  |  |  |  | 41.6 nM | 
6 | CAGCGCUGUCGAGAGGAUAUGCGGUGAUGGACAUGAGGAUCACCCAUGUUAGCGAUAGCAUUACGGUAGAAGGCUCUACAGCUGC [Soteed no mod] (puzzle: Same State 2) | 15 nM | 25.5 nM | 30.2 nM |  |  | 
7 | GAAAAACAUGAGGAUCACCCAUGUGAGAAUAUGGGAGGAUAUACGAGGACGAGAGUCAAGGUAGAAGGCCUAAAAG [Garnet 75] (Eterna round: R96, puzzle: Same State 1) |  |  |  | 45.3 nM | 255 nM | 314 nM
8 | CAGCACUGUCGAGAGGAUAUGCGGUGGUAGACAUGAGGAUCACCCAUGUUAGCGACAGCAUCACGGCAGAAGGCUCUGCUGCUGC [Soteed Omei mod 41] (puzzle: Same State 2) | 37.3 nM | 96.2 nM | 146 nM |  |  | 
9 | AGGCUCAGACGAGGAUAUAUGCGAUCACAUGAGGAUCACCCAUGUCUCGAGCUUCGGCUCGAGGCAUAGAAGGCGUCUGAGCCA [SSNG2/4-A1] (Eterna round: R96, puzzle: Same State NG 2) |  |  |  | 16.4 nM | 31.2 nM | 38.4 nM
10 | UAAUUAAAGCAAGGAUAUCACGUCGAAUAGACGUGAGAAGGUGCUCCUUACAUGAGGAUCACCCAUGUAUAACAUGAAUAAUUA [SSNG1/10-B1] (Eterna round: R96, puzzle: Same State NG 1) |  |  |  | 166 nM | 702 nM | 741 nM
11 | AAACCCAGUCUGUAGGAUAUGCACCUGCCGACAUGAGGAUCACCCAUGUACCCUAACAACAGCGUGCAGAAGGGCAGCAAUAAAA [Verilara] (puzzle: Same State 2) | 19.2 nM | 22.9 nM | 26.3 nM |  |  | 
12 | CCCAGCGUUACAGGAUAUGGUGAGGAUCACCCACUAGAAGGGUAAACAUGUGCGUCGGACAUGAGGAUCACCCAUGUAGGGCGU (Eterna round: R96, puzzle: Same State NG 1) |  |  |  | 20.6 nM | 17.9 nM | 27 nM
13 | UUUACUUUCAUAGGAUAUCAUGCGAAAAUUGCGUGAGAAGGGUGAAUACUGUCUUUCUAAGAGUACAUGAGGAUCACCCAUGUA [SameState NG1 #64] (Eterna round: R96, puzzle: Same State NG 1) |  |  |  | 56.9 nM | 45.8 nM | 51.2 nM
14 | UUUAGUUGCGGGCAGGAUAUGUAUUAAAAUACAUGAGGAUCACCCAUGUGAGAUCAUAAAGAUCUACAGAAGGGCCAAUCGCGAC [Laonerce - 18] (puzzle: Same State 2) | 13.4 nM | 69.4 nM | 91.6 nM |  |  | 
15 | AAGAUACAUGAGGAUCACCCAUGUCGAGAGAGACGAGGAUAUCUGAAUCGAUUAGAUUACGGAGAAGGCGUGAAAA [LROPPY Same State 1 - v07_deltaG=1.9] (Eterna round: R96, puzzle: Same State 1) |  |  |  | 19.6 nM | 22.2 nM | 29.7 nM
16 | AAUUAAUUAAUACAUGAGGAUCACCCAUGUAAUUAUUAGAUCUAGGAUAUCAGCUCGUUUAGAGCUGAGAAGGAGAUCACAUGU [SSNG3/18-B3] (Eterna round: R96, puzzle: Same State NG 3) |  |  |  |  | 15.1 nM | 
17 | GAGAGAGGAAGCGAGGAUAUCGUGUUGAGUACAUGAGGAUCACCCAUGUUGUAGGUAGAGGUAGGCGAGAAGGCGCAGGAGAAGA [JR_SS2_Sub0100] (puzzle: Same State 2) | 50.2 nM | 39.3 nM | 41 nM |  |  | 
18 | UUAUAACAUGAGGAUCACCCAUGUCAACAAAGUCGAGGAUAUGGGCAGAGAGGAGAAGAACCAGAAGGCGAAUAUU [Mat - Same State 1 - Mod of UCT - D38] (puzzle: Same State 1) | 91.2 nM | 98.4 nM | 94.9 nM |  |  | 
19 | UUAAUUUACUGAGGAUAUCGUGUCGACUGAGUUGACAUGAGGAUCACCCAUGUGUGAAGUGGUAUCGAGAAGGCAGUUUUCUUA [JR_SSNG2_Sub026] (Eterna round: R96, puzzle: Same State NG 2) |  |  |  | 19 nM | 76.9 nM | 122 nM
20 | UGGCUCAGAGCAGGAUAUAUGCGAUCACAUGAGGAUCACCCAUGUCUCGAGCUUCGGCUCGAGGCAUAGAAGGGCUCUGAGCCA [SSNG2/4-B2] (Eterna round: R96, puzzle: Same State NG 2) |  |  |  | 14.4 nM | 26.8 nM | 36.4 nM
21 | GUUACAUGAGGAUCACCCAUGUAUGUGUGGGAGUAAGUGUCUUAGGAUAUCUAUGAUUUAAUCUAAGAGAAGGAAGAUUGUUGU [JMF's solution 82] (Eterna round: R96, puzzle: Same State NG 3) |  |  |  | 114 nM | 76.8 nM | 95.3 nM
22 | AGUCCAGCCUGAGCUGGACAAAAGCAUGUACAUGAGGAUCACCCAUGUUCAUGUACAAGCUUUUUGCUCGUCUUGAA [salish99_208a_r3_095x] (Eterna round: R96, puzzle: Sensor for hsa-mir-208a) |  |  |  | 646 nM | 16.1 nM | 572 nM
23 | AGUCCAGCCAGAGCUGGACAAAAGCAUGUACAUGAGGAUCACCCAUGUUCAUGUACAAGCUUUUUGCAAGUCAAAAG [Mat - hsa-mir-208a - Mod of JL - 74] (puzzle: Sensor for hsa-mir-208a) | 503 nM | 25.9 nM | 780 nM |  |  | 
24 | GGCCAGAGUCAAGGAUAUGCUACCGUUUCGGUAGCAGAAGGUGAUCACAUGAGGAUCACCCAUGUUUACUGGGAGACCAUGGCC [JL SSNG1 3.69] (Eterna round: R96, puzzle: Same State NG 1) |  |  |  | 219 nM | 136 nM | 112 nM
25 | CACAAUCUAUCUGAGGAUAUCAUGAAAAAAACAUGAGGAUCACCCAUGUGCAGGAAAACUGCAUAUGAGAAGGCAGAUAGAUUGC [salish99_SS2_r3_013] (Eterna round: R96, puzzle: Same State 2) |  |  |  |  | 452 nM | 
26 | CUUAACAGAGGAGGAUAUGCAGAGGAUCACCCUGUAGAAGGCCACAGAGGAGGAUAUGCAGAGGAUCACCCUGUAGAAGGCCAC [pwkr ssNG DX.8] (Eterna round: R96, puzzle: Same State NG 1) |  |  |  | 622 nM | 143 nM | 280 nM
27 | GUGGUCAGACAUGAGGAUCACCCAUGUGGAAUAAAUAAGGCAUAGGAUAUAAAAUAUAGGAUAUAUUAGAAGGAUGGGUUGGUG (Eterna round: R96, puzzle: Same State NG 3) |  |  |  | 145 nM | 83.7 nM | 144 nM
28 | CCAGCAUCACGAGGAUAUGGAGGUUCCCGAAAGACAUGAGGAUCACCCAUGUAUGUACGCCGCCUUCAGAAGGUGUAUAAGCGA [Eternabot solution 31] (Eterna round: R96, puzzle: Same State NG 2) |  |  |  | 65.7 nM | 38.2 nM | 58.7 nM
